Key:
MS2 coat protein [1] = experiment: apparent KD of MS2 coat protein; designed switch direction (-1 OFF switch, 1 ON switch): 1; higher = weaker reporter binding
In short: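 Designed RNA switches with common flanks were made on Illumina chips by stalled E. coli RNA polymerase. Titration with SNAP-549-labelled MS2 coat protein doubled from 0.7 or 1.5 nM up to 3 µM. Apparent KD is each design's median over clusters after curve-fitting normalised fluorescence.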

MS2 coat protein [2] = experiment: apparent KD of MS2 coat protein; higher = weaker reporter binding; settings: Eterna round: R107
In short: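 On-chip transcription from Illumina sequencing clusters produced the designed RNA switches. These were titrated with SNAP-549-labelled MS2 coat protein (twofold steps, 0.7 or 1.5 nM to 3 µM) in 100 mM Tris-HCl pH 7.5, 80 mM KCl, 4 mM MgCl2, with or without constant ligand. The apparent KD given is the per-design median of normalised cluster binding-curve fits.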

[3] = Eterna round: R95, input ligand: FMN 200 uM
[4] = Eterna round: R95, input ligand: microRNA oligo, concentration not stated
[5] = Eterna round: R95, input ligand: none
[6] = input ligand: microRNA oligo, concentration not stated
[7] = input ligand: theophylline 20 uM
[8] = input ligand: theophylline 2 mM
[9] = input ligand: tryptophan 2.4 mM

| Sequence | apparent KD of MS2 coat protein (MS2 coat protein [2]; input ligand: arginine 13.2 mM) [nM] | apparent KD of MS2 coat protein (MS2 coat protein [2]; input ligand: none) [nM] | apparent KD of MS2 coat protein (MS2 coat protein [2]; [7]) [nM] | apparent KD of MS2 coat protein (MS2 coat protein [2]; [8]) [nM] | apparent KD of MS2 coat protein (MS2 coat protein [2]; [9]) [nM] | other results |
| --- | --- | --- | --- | --- | --- | --- |
| UUGCGCUGUCGAGAGGAUAUGCGGUGAUGGACAUGAGGAUCACCCAUGUUAGCGAUAGCAUUACGGUAGAAGGCUCUUCAGCUGC [salish99_ss2_r3_095] (puzzle: Same State 2) | – | – | – | – | – | apparent KD of MS2 coat protein (MS2 coat protein [1]; [3]): 16.2 nM; apparent KD of MS2 coat protein (MS2 coat protein [1]; [4]): 21.8 nM; apparent KD of MS2 coat protein (MS2 coat protein [1]; [5]): 26.2 nM |
| CUUUUUCACUAUACAUGAGGAUCACCCAUGUUAUCAUCAUGAGAGGAUAUCGUAAUAGGAUUUUUCGAGAAGGCUCUAAAGUAU [JR_SSNG3_Sub079] (Eterna round: R96, puzzle: Same State NG 3) | – | – | – | – | – | apparent KD of MS2 coat protein (MS2 coat protein [1]; input ligand: FMN 200 uM): 26.3 nM; apparent KD of MS2 coat protein (MS2 coat protein [1]; [6]): 43 nM; apparent KD of MS2 coat protein (MS2 coat protein [1]; input ligand: none): 45 nM |
| AGUCGAGCCUGAGCUCGACAAAAGCAUGUACAUGAGGAUCACCCAUGUCAUGUACAAGCUUUUUGCUCGUCUUAAAA [Mat - hsa-mir-208a - Mod of JL - D19] (puzzle: Sensor for hsa-mir-208a) | – | – | – | – | – | apparent KD of MS2 coat protein (MS2 coat protein [1]; [3]): 238 nM; apparent KD of MS2 coat protein (MS2 coat protein [1]; [4]): 13.5 nM; apparent KD of MS2 coat protein (MS2 coat protein [1]; [5]): 264 nM |
| GUAAUACAUGAGGAUCACCCAUGUCAAUGUAGUCGAGGAUAUGGGUAGCUAUGUGGCUUACUAGAAGGCGACGAGC [Same State 1 - Mod of Vinnie Teenbexe v.4] (puzzle: Same State 1) | – | – | – | – | – | apparent KD of MS2 coat protein (MS2 coat protein [1]; [3]): 90.3 nM; apparent KD of MS2 coat protein (MS2 coat protein [1]; [4]): 157 nM; apparent KD of MS2 coat protein (MS2 coat protein [1]; [5]): 251 nM |
| UGAAUGGUGAUAGGAUAUACAUGAGGAAUCCUCGUAGAAGGAUCAUGACAUGAGGAUCACCCAUGUAGCGCUCCGUAGAGCGCA [JL SSNG1 1.21] (Eterna round: R96, puzzle: Same State NG 1) | – | – | – | – | – | apparent KD of MS2 coat protein (MS2 coat protein [1]; input ligand: FMN 200 uM): 53 nM; apparent KD of MS2 coat protein (MS2 coat protein [1]; [6]): 19.7 nM; apparent KD of MS2 coat protein (MS2 coat protein [1]; input ligand: none): 154 nM |
| AACUGGAUCAGUGAUACCAGAGACAUGAGGAUCACCCAUGUACAUGAGGAUCACCCAUGUCUCCCUUGGCAGCACAGCAGGGAGC [Exclusion Theophylline B GF 17] | 32.8 | 70 | 70.3 | 442 | 64.1 | – |
| GACCUUGCCUGAAGGAGCGAGGUAAAUAGGGUUGAGCAUACAUGAGGAUCACCCAUGUGGCCUCAGGUAGGUCGCAGGUAGGACA [Exclusion Arginine B GF30] | 97.1 | 114 | 224 | 189 | 114 | – |
| GGACUAACUGGAAGGAGCGACACGCAGAAACUGCAAUUUCCUCCACACGAGGAUCACCCGUGUCAGGUAGGUCGCCAGUUAGUCG [ArgBX 29] | 31.3 | 39.1 | 52 | 57 | 40.9 | – |
| AGACAUGUAAGAUAAAUGACUUAUACAGAUACCAGACUAGUCAAUGUCCCUUGGCAGCUGCAUAACAUGAGGAUCACCCAUGUAA [JR_ExcTheophyA_Sub009] | 20.6 | – | 27.5 | – | 24.4 | – |
| GCAACGCUGUCGGCCGCCACUUUUACAUUGGCCGUGCUGUCUCUACAUGAGGAUCACCCAUGUGGAAGGACCGGGACAGCACACU [Arzaleer] | 21.2 | – | 39.6 | 44.7 | – | – |
| ACUAGAGGUGGAAGGAGCGGGAGACAUGAGCAUCACAUGAGGAUCACCCAUGUAGGAUCAUCCCAGGUAGGUCGCCAUGUCGAAA [h.hgmullin] | 88.4 | 363 | 290 | 218 | 173 | – |
| ACAUGAGGAUCACCCAUGUACGGUAUCAAUCGAGGACCGGUACGGCCGCCACUCGGAAAUAGAAGCGAUUAUUAGUGUUCUUUGU [Same State - Tryptophan A / A] | 16.1 | – | 19 | 16.6 | – | – |
| AAUAUAUAUCACGAACUGUGGUGUAUGUUCCGAGGACCGGUACGGCCGCCACUCGCGUGGUUCCACAUGAGGAUCACCCAUGUUG [XTryp A #8] | 17.3 | 16.8 | 29.4 | 23.2 | 22.5 | – |
| UUACAUGAGGAUCACCCAUGUUUACUAUGUCGAGGACCGGUACGGCCGCCACUCGUAUUUGAUGAUUUAGGUGCCACAAGUUAUU [JR_Nu_ExcTryptoA_Sub024] | 16.1 | – | 26.6 | 22.6 | – | – |
| GUGGGUUUGCGAAGGAGCGGGUAUGUUUUCUACUGGAUCCUAACAUGAGGAUCACCCAUGUCCCAGGUAGGUCGCGCGGGCUUGG [12.Z] | 49.7 | 215 | 81.9 | 209 | 56.8 | – |
| CAUGGGCUAAGACAUUAUUCGUAUUUUGAUACCAGAAAAUUGGCGUUCCCUUGGCAGCAAUAUACAUGAGGAUCACCCAUGUCCC [theeternabot_exclusion_MS2_Theo_A_23] | 38.8 | – | 70.9 | – | 58.3 | – |
| AGCACACAUCCUGAUACCAGAGACAUGAGGAUCACCCAUGUCCGAUCGUCCUGCCUCAGACUCCCUUGGCAGCAGGAUGUGUGCU [Exclusion Theophylline B GF7] | 12.5 | – | 18.6 | – | 13.4 | – |
| UGGUCCGUCGGAAGGAGCGACAUGAGGAUCACCCAUGUCUCCCGUUAUGGGAGUUCUUUAGGUCAGGUAGGUCGCCGGCGGGUCA [#1 Exclusion - Arginine B Attempt #12 (Inspired by Omei)] | 91.6 | 111 | 209 | 220 | 144 | – |
